From patent US20110263679

Test system: T1, purified recombinant His-tagged C12ORF48 protein
T1 sequence: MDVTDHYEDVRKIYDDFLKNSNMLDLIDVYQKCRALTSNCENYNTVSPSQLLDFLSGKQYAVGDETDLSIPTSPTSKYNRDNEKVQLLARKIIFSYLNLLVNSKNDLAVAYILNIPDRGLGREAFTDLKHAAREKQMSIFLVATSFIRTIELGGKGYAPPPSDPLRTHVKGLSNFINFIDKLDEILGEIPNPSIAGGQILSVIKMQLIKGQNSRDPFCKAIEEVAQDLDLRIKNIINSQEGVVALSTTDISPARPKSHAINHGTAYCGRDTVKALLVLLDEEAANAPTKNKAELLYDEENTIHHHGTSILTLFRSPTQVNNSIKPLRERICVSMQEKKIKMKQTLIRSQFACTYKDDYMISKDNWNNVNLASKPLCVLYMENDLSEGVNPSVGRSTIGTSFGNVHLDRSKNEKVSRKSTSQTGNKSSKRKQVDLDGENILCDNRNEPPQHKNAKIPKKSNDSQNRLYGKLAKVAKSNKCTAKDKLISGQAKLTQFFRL

recombinant human PARP1 (Alexis)
PARP1 automodification, incorporation of [32P] NAD+, SDS-PAGE autoradiography: PARP1 automodification was strongly enhanced in the presence of C12ORF48 protein compared with in the absence of C12ORF48 protein
